B1: U4/U6 small nuclear ribonucleoprotein Prp31 (Homo sapiens), Q8WWY3 (parent)
chain: MSLADELLADLEEAAEEEEGGSYGEEEEEPAIEDVQEETQLDLSGDSVKTIAKLWDSKMFAEIMMKIEEYISKQAKASEVMGPVEAAPEYRVIVDANNLTVEIENELNIIHKFIRDKYSKRFPELESLVPNALDYIRTVKELGNSLDKCKNNENLQQILTNATIMVVSVTASTTQGQQLSEEELERLEEACDMALELNASKHRIYEYVESRMSFIAPNLSIIIGASTAAKIMGVAGGLTNLSKMPACNIMLLGAQRKTLSGFSSTSVLPHTGYIYHSDIVQSLPPDLRRKAARLVAAKCTLAARVDSFHESTEGKVGYELKDEIERKFDKWQEPPPVKQVKPLPAPLDGQRKKRGGRRYRKMKERLGLTEIRKQANRMSFGEIEEDAYQEDLGFSLGHLGKSGSGRVRQTQVNEATKARISKTLQRTLQKQSVVYGGKSTIRDRSSGTASSVAFTPLQGLEIVNPQAAEKKVAEANQKYFSSMAEFLKVKGEKSGLMST
partner: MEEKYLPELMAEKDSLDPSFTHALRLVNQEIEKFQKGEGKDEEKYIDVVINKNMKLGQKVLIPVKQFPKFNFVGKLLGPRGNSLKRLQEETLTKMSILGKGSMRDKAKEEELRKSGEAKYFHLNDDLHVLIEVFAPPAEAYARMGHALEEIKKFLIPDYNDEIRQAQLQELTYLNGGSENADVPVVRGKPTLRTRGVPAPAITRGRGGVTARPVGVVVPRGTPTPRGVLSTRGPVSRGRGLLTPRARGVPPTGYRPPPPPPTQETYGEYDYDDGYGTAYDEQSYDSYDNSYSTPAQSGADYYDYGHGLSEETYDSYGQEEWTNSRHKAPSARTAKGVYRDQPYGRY
B2: Keratin, type I cytoskeletal 18 (Homo sapiens), P05783 (parent)
chain: MSFTTRSTFSTNYRSLGSVQAPSYGARPVSSAASVYAGAGGSGSRISVSRSTSFRGGMGSGGLATGIAGGLAGMGGIQNEKETMQSLNDRLASYLDRVRSLETENRRLESKIREHLEKKGPQVRDWSHYFKIIEDLRAQIFANTVDNARIVLQIDNARLAADDFRVKYETELAMRQSVENDIHGLRKVIDDTNITRLQLETEIEALKEELLFMKKNHEEEVKGLQAQIASSGLTVEVDAPKSQDLAKIMADIRAQYDELARKNREELDKYWSQQIEESTTVVTTQSAEVGAAETTLTELRRTVQSLEIDLDSMRNLKASLENSLREVEARYALQMEQLNGILLHLESELAQTRAEGQRQAQEYEALLNIKVKLEAEIATYRRLLEDGEDFNLGDALDSSNSMQTIQKTTTRRIVDGKVVSETNDTKVLRH
B3: Progranulin (Homo sapiens), P28799 (parent)
chain: MWTLVSWVALTAGLVAGTRCPDGQFCPVACCLDPGGASYSCCRPLLDKWPTTLSRHLGGPCQVDAHCSAGHSCIFTVSGTSSCCPFPEAVACGDGHHCCPRGFHCSADGRSCFQRSGNNSVGAIQCPDSQFECPDFSTCCVMVDGSWGCCPMPQASCCEDRVHCCPHGAFCDLVHTRCITPTGTHPLAKKLPAQRTNRAVALSSSVMCPDARSRCPDGSTCCELPSGKYGCCPMPNATCCSDHLHCCPQDTVCDLIQSKCLSKENATTDLLTKLPAHTVGDVKCDMEVSCPDGYTCCRLQSGAWGCCPFTQAVCCEDHIHCCPAGFTCDTQKGTCEQGPHQVPWMEKAPAHLSLPDPQALKRDVPCDNVSSCPSSDTCCQLTSGEWGCCPIPEAVCCSDHQHCCPQGYTCVAEGQCQRGSEIVAGLEKMPARRASLSHPRDIGCDQHTSCPVGQTCCPSLGGSWACCQLPHAVCCEDRQHCCPAGYTCNVKARSCEKEVVSAQPATFLARSPHVGVKDVECGEGHFCHDNQTCCRDNRQGWACCPYRQGVCCADRRHCCPAGFRCAARGTKCLRREAPRWDAPLRDPALRQLL
partner: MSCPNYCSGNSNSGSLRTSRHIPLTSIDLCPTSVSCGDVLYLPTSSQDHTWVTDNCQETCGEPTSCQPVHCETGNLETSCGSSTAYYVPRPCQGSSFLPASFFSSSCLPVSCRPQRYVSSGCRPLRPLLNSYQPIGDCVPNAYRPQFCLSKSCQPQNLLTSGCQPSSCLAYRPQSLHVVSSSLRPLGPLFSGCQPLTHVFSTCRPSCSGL
B4: Inactive peptidyl-prolyl cis-trans isomerase FKBP6 (Homo sapiens), O75344 (parent)
chain: MGGSALNQGVLEGDDAPGQSLYERLSQRMLDISGDRGVLKDVIREGAGDLVAPDASVLVKYSGYLEHMDRPFDSNYFRKTPRLMKLGEDITLWGMELGLLSMRRGELARFLFKPNYAYGTLGCPPLIPPNTTVLFEIELLDFLDCAESDKFCALSAEQQDQFPLQKVLKVAATEREFGNYLFRQNRFYDAKVRYKRALLLLRRRSAPPEEQHLVEAAKLPVLLNLSFTYLKLDRPTIALCYGEQALIIDQKNAKALFRCGQACLLLTEYQKARDFLVRAQKEQPFNHDINNELKKLASCYRDYVDKEKEMWHRMFAPCGDGSTAGES
partner: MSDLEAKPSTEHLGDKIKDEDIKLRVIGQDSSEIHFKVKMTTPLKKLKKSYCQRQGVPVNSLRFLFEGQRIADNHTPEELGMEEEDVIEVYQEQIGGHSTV
B5: Progranulin (Homo sapiens), P28799 (parent)
chain: B3 chain
B6: Lipopolysaccharide-induced tumor necrosis factor-alpha factor (Homo sapiens), Q99732 (parent)
chain: MSVPGPYQAATGPSSAPSAPPSYEETVAVNSYYPTPPAPMPGPTTGLVTGPDGKGMNPPSYYTQPAPIPNNNPITVQTVYVQHPITFLDRPIQMCCPSCNKMIVSQLSYNAGALTWLSCGSLCLLGCIAGCCFIPFCVDALQDVDHYCPNCRALLGTYKRL

In the first experiment the parent is B1. The note with it: with khdr3_human KHDRBS3, O75525.
For L107V, the “effect of a mutation on the interaction” value is “with no effect”.

In another experiment the parent is B2. The note with it: with goga2_human GOLGA2, Q08379.
Chain of goga2_human GOLGA2, Q08379 (Q08379 whole entry): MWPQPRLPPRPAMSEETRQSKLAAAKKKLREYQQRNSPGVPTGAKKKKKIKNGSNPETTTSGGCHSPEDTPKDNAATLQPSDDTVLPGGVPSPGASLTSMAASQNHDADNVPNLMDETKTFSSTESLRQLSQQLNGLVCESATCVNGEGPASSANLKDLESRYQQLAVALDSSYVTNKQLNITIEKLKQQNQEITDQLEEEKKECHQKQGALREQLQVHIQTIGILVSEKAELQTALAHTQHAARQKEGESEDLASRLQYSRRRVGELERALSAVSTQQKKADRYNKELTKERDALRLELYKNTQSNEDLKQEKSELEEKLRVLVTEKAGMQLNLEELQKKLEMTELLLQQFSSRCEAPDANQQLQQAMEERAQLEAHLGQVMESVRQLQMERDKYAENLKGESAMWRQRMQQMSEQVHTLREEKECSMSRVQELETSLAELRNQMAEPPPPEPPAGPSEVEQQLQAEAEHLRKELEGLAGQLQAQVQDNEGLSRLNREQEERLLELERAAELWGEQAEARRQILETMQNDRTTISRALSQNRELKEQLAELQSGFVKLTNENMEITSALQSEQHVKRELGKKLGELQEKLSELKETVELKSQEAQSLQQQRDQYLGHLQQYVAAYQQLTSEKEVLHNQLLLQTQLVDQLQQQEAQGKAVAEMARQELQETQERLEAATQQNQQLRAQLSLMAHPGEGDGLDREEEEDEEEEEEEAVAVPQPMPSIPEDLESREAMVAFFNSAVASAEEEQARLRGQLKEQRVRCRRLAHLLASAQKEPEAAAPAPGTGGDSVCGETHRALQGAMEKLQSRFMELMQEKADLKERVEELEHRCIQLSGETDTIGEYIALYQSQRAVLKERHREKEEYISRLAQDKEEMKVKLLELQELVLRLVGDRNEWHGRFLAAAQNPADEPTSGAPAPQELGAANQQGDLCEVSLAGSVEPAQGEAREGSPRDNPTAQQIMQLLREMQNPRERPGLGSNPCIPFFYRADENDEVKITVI
G340R: the “effect of a mutation on the interaction” value is on record as “disrupting interaction strength”.
As to H128L, the “effect of a mutation on the interaction” value is given as “with no effect”.
Take Q285R: the “effect of a mutation on the interaction” value was “disrupting interaction strength”.
On the same count and under the same terms, under T103A stands “disrupting interaction strength”.

The variants in a further experiment derive from B2. Conditions: with hgs_human HGS.
Target sequence in this assay (O14964 whole entry): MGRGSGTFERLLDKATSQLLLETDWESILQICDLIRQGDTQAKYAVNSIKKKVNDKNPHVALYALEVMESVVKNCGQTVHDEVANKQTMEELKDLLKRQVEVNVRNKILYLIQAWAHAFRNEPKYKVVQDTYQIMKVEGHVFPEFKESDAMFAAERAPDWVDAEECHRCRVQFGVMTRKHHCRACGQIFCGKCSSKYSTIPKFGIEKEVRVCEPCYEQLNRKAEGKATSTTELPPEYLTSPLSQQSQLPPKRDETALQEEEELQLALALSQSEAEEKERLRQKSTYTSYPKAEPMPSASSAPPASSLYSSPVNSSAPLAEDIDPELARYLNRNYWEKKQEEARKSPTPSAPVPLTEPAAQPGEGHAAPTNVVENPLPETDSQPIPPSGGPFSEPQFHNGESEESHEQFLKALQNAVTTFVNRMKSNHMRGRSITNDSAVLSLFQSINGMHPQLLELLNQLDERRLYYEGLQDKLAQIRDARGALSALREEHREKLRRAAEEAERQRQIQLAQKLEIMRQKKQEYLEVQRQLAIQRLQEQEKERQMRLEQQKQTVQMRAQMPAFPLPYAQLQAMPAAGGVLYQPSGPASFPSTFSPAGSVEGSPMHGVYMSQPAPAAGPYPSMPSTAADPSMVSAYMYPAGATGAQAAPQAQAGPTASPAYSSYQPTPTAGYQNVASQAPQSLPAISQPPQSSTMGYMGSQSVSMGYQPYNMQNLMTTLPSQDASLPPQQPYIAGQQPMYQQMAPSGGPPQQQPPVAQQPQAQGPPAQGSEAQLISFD
For the variant G340R, the “effect of a mutation on the interaction” value is listed as “disrupting interaction strength”.
Take H128L: the “effect of a mutation on the interaction” value is recorded as “with no effect”.
Same read-out and setting: then Q285R, with “disrupting interaction strength”.
T103A: the “effect of a mutation on the interaction” value was “disrupting interaction strength”.

The next experiment covers variants of B2. The note with it: with syce1_human SYCE1, Q8N0S2.
Chain of syce1_human SYCE1, Q8N0S2 (Q8N0S2 whole entry): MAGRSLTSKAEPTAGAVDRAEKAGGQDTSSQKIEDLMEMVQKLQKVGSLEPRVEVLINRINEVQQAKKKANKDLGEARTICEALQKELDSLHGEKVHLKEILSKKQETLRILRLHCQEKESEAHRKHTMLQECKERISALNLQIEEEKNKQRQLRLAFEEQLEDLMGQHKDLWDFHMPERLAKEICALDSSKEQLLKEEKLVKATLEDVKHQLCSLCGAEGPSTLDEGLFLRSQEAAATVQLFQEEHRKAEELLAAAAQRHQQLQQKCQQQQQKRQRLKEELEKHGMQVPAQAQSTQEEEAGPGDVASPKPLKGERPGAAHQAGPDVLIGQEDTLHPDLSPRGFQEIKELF
As for G340R, the “effect of a mutation on the interaction” value is “with no effect”.
Consider H128L, for which the “effect of a mutation on the interaction” value is reported as “with no effect”.
Still for that read-out and setting: under Q285R stands “with no effect”.
As for T103A, the “effect of a mutation on the interaction” value is “disrupting interaction strength”.

The variants in a further experiment derive from B3. The note with it: with kr261_human KRTAP26-1, Q6PEX3.
Take P451L: the “effect of a mutation on the interaction” value is recorded as “with no effect”.
Same read-out and setting: then P248L, with “with no effect”; and A9D, with “disrupting interaction strength”; and R432C, with “disrupting interaction strength”.

In another experiment the parent is B4. Conditions: with sumo5_human SUMO1P1, G2XKQ0.
Regarding F72L, the “effect of a mutation on the interaction” value is reported as “disrupting interaction strength”.
On the same count and under the same terms, then R202H, with “with no effect”.

Another experiment covers variants of B5. The note with it: with hxa1_human HOXA1, P49639.
Chain of hxa1_human HOXA1, P49639 (P49639 whole entry): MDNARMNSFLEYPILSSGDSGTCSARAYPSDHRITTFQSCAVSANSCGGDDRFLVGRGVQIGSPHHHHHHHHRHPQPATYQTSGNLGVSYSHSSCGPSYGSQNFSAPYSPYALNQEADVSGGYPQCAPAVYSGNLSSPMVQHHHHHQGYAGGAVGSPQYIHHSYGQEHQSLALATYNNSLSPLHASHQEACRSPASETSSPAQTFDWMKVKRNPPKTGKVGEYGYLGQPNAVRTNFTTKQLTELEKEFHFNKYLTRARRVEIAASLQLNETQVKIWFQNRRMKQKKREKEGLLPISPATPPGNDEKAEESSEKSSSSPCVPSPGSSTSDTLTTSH
Regarding A9D, the “effect of a mutation on the interaction” value was “disrupting interaction strength”.
Consider P248L, for which the “effect of a mutation on the interaction” value is recorded as “with no effect”.
Still for that read-out and setting: then R432C, with “disrupting interaction strength”.
Still for that read-out and setting: under P451L stands “with no effect”.

Variants of B5 are the subject of another experiment. Conditions: with ARFGAP1, Q8N6T3-3.
Chain of ARFGAP1, Q8N6T3-3 (Q8N6T3 other isoform, or with tags, fused parts or gaps): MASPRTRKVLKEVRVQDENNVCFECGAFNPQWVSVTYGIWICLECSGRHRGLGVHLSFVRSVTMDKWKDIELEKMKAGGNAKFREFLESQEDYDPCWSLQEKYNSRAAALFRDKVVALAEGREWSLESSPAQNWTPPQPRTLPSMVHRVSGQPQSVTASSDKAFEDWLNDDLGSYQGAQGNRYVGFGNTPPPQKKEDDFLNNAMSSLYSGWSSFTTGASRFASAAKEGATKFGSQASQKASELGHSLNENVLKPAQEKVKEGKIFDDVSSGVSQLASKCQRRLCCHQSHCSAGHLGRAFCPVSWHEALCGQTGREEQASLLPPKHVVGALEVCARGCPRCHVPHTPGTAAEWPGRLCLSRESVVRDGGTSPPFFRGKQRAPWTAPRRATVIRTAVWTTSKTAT
On to A9D, for which the “effect of a mutation on the interaction” value is listed as “disrupting interaction strength”.
Turning to P248L, the “effect of a mutation on the interaction” value is reported as “with no effect”.
For R432C, the “effect of a mutation on the interaction” value is “disrupting interaction strength”.
P451L: the “effect of a mutation on the interaction” value is listed as “disrupting interaction strength”.

The variants in another experiment derive from B5. The note with it: with sgta_human SGTA.
For A9D, the “effect of a mutation on the interaction” value is recorded as “disrupting interaction strength”.
As for P248L, the “effect of a mutation on the interaction” value is “with no effect”.
On the same count and under the same terms, then R432C, with “disrupting interaction strength”; and P451L, with “with no effect”.

The variants in another experiment derive from B5. Conditions: with otx1_human OTX1, P32242.
Chain of otx1_human OTX1, P32242 (P32242 whole entry): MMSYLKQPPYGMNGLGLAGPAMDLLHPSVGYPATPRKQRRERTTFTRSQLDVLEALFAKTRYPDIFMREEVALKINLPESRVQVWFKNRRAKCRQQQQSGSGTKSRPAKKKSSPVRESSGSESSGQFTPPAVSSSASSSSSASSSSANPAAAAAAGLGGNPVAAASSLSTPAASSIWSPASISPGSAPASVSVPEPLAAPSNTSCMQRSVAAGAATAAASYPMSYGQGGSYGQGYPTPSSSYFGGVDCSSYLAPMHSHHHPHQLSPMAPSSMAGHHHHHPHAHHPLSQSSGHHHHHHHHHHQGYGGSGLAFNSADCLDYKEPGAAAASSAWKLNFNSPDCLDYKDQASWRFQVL
A9D: the “effect of a mutation on the interaction” value is listed as “disrupting interaction strength”.
As for P248L, the “effect of a mutation on the interaction” value is given as “with no effect”.
Same read-out and setting: under R432C stands “with no effect”.
Still for that read-out and setting: then P451L, with “with no effect”.

Variants of B5 are the subject of the next experiment. The note with it: with ccd33_human CCDC33, Q8N5R6.
Chain of ccd33_human CCDC33, Q8N5R6 (Q8N5R6 whole entry): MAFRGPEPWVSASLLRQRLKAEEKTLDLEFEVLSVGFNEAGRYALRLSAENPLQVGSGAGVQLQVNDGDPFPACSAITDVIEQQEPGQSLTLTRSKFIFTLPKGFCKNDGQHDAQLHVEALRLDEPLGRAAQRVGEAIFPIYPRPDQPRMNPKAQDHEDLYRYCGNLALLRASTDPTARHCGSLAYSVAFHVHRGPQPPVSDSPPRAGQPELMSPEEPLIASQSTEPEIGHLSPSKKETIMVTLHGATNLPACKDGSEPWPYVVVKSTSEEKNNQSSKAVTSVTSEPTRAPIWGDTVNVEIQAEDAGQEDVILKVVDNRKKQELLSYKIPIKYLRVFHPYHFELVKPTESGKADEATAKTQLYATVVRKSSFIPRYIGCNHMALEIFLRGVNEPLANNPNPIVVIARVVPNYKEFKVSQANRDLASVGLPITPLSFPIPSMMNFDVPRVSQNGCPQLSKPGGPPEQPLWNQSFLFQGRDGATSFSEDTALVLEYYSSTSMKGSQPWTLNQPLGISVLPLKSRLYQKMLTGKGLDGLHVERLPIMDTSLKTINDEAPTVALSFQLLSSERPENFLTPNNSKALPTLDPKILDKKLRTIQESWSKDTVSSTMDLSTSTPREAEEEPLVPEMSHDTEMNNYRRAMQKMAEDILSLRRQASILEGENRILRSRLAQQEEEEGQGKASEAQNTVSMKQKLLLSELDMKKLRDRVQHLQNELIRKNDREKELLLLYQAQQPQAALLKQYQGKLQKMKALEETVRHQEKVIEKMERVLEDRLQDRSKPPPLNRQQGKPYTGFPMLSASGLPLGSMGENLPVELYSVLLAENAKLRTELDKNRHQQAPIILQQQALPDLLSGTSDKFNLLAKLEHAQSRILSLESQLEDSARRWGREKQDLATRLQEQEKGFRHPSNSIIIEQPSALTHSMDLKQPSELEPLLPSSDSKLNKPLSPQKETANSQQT
As for A9D, the “effect of a mutation on the interaction” value is “disrupting interaction strength”.
Still for that read-out and setting: under P248L stands “with no effect”.
Same read-out and setting: under R432C stands “disrupting interaction strength”.
Still for that read-out and setting: under P451L stands “disrupting interaction strength”.

Variants of B6 are the subject of the next experiment. The note with it: with UBQLN1, Q9UMX0-2.
Chain of UBQLN1, Q9UMX0-2 (Q9UMX0 other isoform, or with tags, fused parts or gaps): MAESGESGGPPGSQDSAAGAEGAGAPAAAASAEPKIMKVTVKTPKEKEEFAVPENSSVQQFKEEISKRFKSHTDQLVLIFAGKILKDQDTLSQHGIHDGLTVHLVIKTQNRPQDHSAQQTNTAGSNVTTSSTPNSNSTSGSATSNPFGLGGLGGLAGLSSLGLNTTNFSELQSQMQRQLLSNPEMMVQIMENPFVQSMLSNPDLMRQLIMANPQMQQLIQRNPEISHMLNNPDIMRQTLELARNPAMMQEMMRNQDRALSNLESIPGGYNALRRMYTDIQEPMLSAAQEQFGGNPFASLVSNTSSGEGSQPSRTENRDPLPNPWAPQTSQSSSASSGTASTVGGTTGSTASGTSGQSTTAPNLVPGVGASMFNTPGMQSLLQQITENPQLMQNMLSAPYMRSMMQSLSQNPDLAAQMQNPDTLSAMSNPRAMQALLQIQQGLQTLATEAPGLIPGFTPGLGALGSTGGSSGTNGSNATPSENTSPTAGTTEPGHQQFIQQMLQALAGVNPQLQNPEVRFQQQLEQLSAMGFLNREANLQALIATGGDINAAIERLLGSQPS
With A111G, the “effect of a mutation on the interaction” value was “disrupting interaction strength”.

The next experiment covers variants of B6. The note with it: with stam2_human STAM2, O75886.
Consider A111G, for which the “effect of a mutation on the interaction” value was “disrupting interaction strength”.

Another experiment covers variants of B6. The note with it: with reep6_human REEP6, Q96HR9.
Chain of reep6_human REEP6, Q96HR9 (Q96HR9 whole entry): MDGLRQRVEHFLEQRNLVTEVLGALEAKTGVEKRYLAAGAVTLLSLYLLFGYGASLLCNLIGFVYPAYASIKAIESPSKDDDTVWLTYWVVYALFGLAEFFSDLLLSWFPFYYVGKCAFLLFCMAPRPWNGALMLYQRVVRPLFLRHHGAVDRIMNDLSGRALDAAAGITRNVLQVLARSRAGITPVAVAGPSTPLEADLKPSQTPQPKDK
On to A111G, for which the “effect of a mutation on the interaction” value is “disrupting interaction strength”.

In a further experiment the parent is B6. The note with it: with hgs_human HGS.
Target sequence in this assay (O14964 whole entry): as the sequence (O14964 whole entry) above
Regarding A111G, the “effect of a mutation on the interaction” value is given as “disrupting interaction strength”.

In the next experiment the parent is B6. Conditions: with OPTN.
For the variant A111G, the “effect of a mutation on the interaction” value is “disrupting interaction strength”.

For the origin of these results see IntAct's records for PubMed 25910212.
